According to PMC4569848:

Tests used:
[1] = biological target: β-arrestin-1-R7-F2Y (UniProt P17870); assay: 19F-NMR
[2] = biological target: β-arrestin-1–Y63-F2Y (UniProt P17870); assay: 19F-NMR
Sequence of β-arrestin-1–Y63-F2Y (P17870 whole entry, stated change not applied): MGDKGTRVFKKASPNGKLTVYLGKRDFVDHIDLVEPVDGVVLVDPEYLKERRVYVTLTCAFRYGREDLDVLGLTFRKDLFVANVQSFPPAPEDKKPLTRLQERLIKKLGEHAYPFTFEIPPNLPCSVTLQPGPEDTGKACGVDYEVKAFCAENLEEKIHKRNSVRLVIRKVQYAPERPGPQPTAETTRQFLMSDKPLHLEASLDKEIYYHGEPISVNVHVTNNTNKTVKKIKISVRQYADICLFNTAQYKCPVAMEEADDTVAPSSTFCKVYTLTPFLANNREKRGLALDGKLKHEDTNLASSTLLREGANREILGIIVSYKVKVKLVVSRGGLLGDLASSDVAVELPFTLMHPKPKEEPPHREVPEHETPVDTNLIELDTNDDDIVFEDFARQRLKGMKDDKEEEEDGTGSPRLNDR

Sequence of β-arrestin-1-R7-F2Y (P17870 other isoform, or with tags, fused parts or gaps R7-F2Y): as the sequence (P17870 whole entry, stated change not applied) above, with R7Y counted along it

Row | other: 19F chemical shift change [1] [p.p.m.] | other: 19F chemical shift change [2] [p.p.m.] | Substance
1 | 0.09 | 0.02 | GRK6pp (GRK6-phosphorylated β2AR C-tail) pS355S
2 | 0.01 | 0.89 | GRK6pp (GRK6-phosphorylated β2AR C-tail) E369A
